Laboratory results reported in patent publication US20130324477A1 (L OREAL, published 2013).

Biological target: T1, filaggrin-2 (FLG2) fragment identified as prey in the double-hybrid screens, corresponding to amino acids … (human, UniProt Q5D862 2-213)
T1 construct: range 2-213; Prey
T1 sequence (looked up): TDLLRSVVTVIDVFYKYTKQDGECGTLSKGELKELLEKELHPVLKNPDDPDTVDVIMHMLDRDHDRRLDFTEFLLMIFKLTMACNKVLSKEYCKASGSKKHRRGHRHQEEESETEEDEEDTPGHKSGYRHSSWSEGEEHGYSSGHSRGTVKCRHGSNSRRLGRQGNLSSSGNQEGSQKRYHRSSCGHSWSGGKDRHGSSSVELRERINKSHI
Experiment: supplementary double-hybrid experiments

- binding result: binds
B1: N-terminal fragment of SASPase-28 (amino acids 11-86, SEQ ID No.: 16) (peptide)
chain: RQHAFVPEPFDGANVVPNLWLHSFEVINDLNHWDHITKLRFLKESLRGEALGVYNRLSPQDQGDYGTVKEALLKAFG
